Experimental data: patent US20260274961A1 (BRIGHAM AND WOMEN S HOSPITAL, published 2026)
Each block holds one molecule with its values, some of them ahead of it.

Legend:
[1] = target: site-specific biotinylated monomeric human CD32a^R (FcγRIIa, arginine-131 variant), recombinant (human) (UniProt P12318); assay: SPR (Biacore 3000), steady state, monomeric IgG, pH 7.4
[2] = target: site-specific biotinylated monomeric human CD32a^H (FcγRIIa, histidine-131 variant), recombinant (human) (UniProt P12318); assay: as above
[3] = target: site-specific biotinylated monomeric human CD32a^H (FcγRIIa, histidine-131 variant), recombinant (human) (UniProt P12318); assay: SPR steady state (refers to Table 6)
[4] = target: His-tagged soluble mouse FcRn (mFcRn), recombinant (mouse) (UniProt Q61559); assay: method not stated; neutral pH
[5] = target: T1, His-tagged soluble mouse FcRn (mFcRn), recombinant (mouse, UniProt Q61559 22-290; P01887 21-119, limits assumed); assay: SPR at pH 5.5: mFcRn injected alone over CD32a^H captured on neutravidin (variant as titled on the sheet); the concentration is not printed on the sheet
T1 construct: Made in an insect cell system 'as described previously'; also called recombinant mFcRn
T1 sequence (looked up): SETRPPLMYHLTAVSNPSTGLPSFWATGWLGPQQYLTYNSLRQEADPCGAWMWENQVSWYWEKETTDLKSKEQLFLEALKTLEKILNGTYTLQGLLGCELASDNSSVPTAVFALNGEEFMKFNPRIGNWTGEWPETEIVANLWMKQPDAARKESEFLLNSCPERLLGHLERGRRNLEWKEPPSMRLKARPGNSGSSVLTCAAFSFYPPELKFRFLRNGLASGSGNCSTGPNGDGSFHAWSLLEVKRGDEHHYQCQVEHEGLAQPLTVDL
T1 sequence (b2m, looked up): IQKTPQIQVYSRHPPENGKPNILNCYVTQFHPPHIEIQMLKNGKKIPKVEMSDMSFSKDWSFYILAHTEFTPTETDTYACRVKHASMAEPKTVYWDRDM
Protocol: (§1) Recombinant C-terminus-biotinylated CD32a variants were captured on neutravidin-coated plates. Analyte(s) were then injected as indicated and specified in the material and methods. […] Recombinant C-terminus-biotinylated CD32a variants were captured on neutravidin amine-coupled CM5 sensor chips. Analyte(s) were then injected as indicated and specified in the material and methods.
(§2) The cDNAs encoding for CD32a^R and CD32a^H were subcloned into a pcDNA3.1 vector and sequences verified by DNA sequencing. […] To obtain clones with similar expression of CD32a^R or CD32a^H, transfected MDCK-II, HEK293T^H2-Kb, and RAW264.7 were processed by fluorescence-activated cell sorting (FACS; BD FACSAria II™). SPR and ELISA CD32a-IgG-FcRn binding SPR analysis was performed using a Biacore 3000™ instrument (GE Healthcare™). CM5™ sensor chips (GE Healthcare™) were coupled with neutrAvidin (Pierce™) (~1000 RU) using amine coupling chemistry, by injecting 5 g/ml in 10 mM sodium acetate, pH 4.5 (GE Healthcare™) at 25° C.).

[6] = target: T2, His-tagged soluble human FcRn (hFcRn), recombinant (human, UniProt P55899 24-290; P61769 21-119, limits assumed); assay: bridging ELISA at pH 5.5: hFcRn/ALP-nanobody reporter complex at one concentration on captured CD32a^H without IgG
T2 construct: Made in an insect cell system 'as described previously'; also called recombinant hFcRn; hFcRn reporter complex (with ALP-conjugated hFcRn-specific nanobody)

[7] = target: T1, His-tagged soluble mouse FcRn (mFcRn), …; assay: SPR at pH 5.5: mFcRn injected alone over CD32a^R captured on neutravidin (variant as titled on the sheet); the concentration is not printed on the sheet
Protocol: as §1, §2

[8] = target: T2, His-tagged soluble human FcRn (hFcRn), …; assay: bridging ELISA at pH 5.5: hFcRn/ALP-nanobody reporter complex at one concentration on captured CD32a^R without IgG

- Kd [1]: 2000 nM
- Kd [2]: 1300 nM
Molecule: anti-NIP chimeric IgG with wild type human IgG1 Fc (hIgG1^WT) (antibody)

- Kd [2]: 4800 nM
Molecule: anti-NIP hIgG1-I253A/H310A/H435A (hIgG1^IHH) (from UniProt P01857 1-330) (antibody)

- Kd [2]: 2800 nM
- decrease of binding against hIgG1^WT [3]: 50%
- Kd [4]: 7.4 nM
Molecule: anti-NIP hIgG1-M252Y/S254T/T256E/H433K/N434F (hIgG1^MST/HN) (from UniProt P01857 1-330) (antibody)

- binding result [5]: no binding
- binding result [6]: no binding
B1: site-specific biotinylated monomeric human CD32a^H (FcγRIIa, histidine-131 variant), recombinant (receptor, UniProt P12318 34-218, looked up)
chain: QAAAPPKAVLKLEPPWINVLQEDSVTLTCQGARSPESDSIQWFHNGNLIPTHTQPSYRFKANNNDSGEYTCQTGQTSLSDPVHLTVLSEWLVLQTPHLEFQEGETIMLRCHSWKDKPLVKVTFFQNGKSQKFSHLDPTFSIPQANHSHSGDYHCTGNIGYTLFSSKPVTITVQVPSMGSSSPMGI
modifications: C-terminus biotinylated
notes: Bought recombinant protein; also called CD32a-H131; C-terminus biotinylated CD32a^H

- binding result [7]: no binding
- binding result [8]: no binding
B2: site-specific biotinylated monomeric human CD32a^R (FcγRIIa, arginine-131 variant), recombinant (receptor, UniProt P12318 34-218, looked up)
chain: QAAAPPKAVLKLEPPWINVLQEDSVTLTCQGARSPESDSIQWFHNGNLIPTHTQPSYRFKANNNDSGEYTCQTGQTSLSDPVHLTVLSEWLVLQTPHLEFQEGETIMLRCHSWKDKPLVKVTFFQNGKSQKFSRLDPTFSIPQANHSHSGDYHCTGNIGYTLFSSKPVTITVQVPSMGSSSPMGI
modifications: C-terminus biotinylated
notes: Bought recombinant protein; The substitution is written against the histidine-131 form; also called CD32a-R131; C-terminus biotinylated CD32a^R
